{
  "source": "the nanobody polyreactivity screen of Harvey et al. (2022)",
  "data": [
    {"assay": "yeast display, Sf9 membrane polyspecificity reagent, FACS + sequencing; frameworks hold sequencing errors", "procedure,_shortened": "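Galactose induction of a Saccharomyces cerevisiae BJ5465 synthetic nanobody display library ran 36–48 hours. The cells were then stained for 1 hour at 4 °C with 10% biotinylated, detergent-solubilized Sf9 membrane reagent, pulled down on streptavidin microbeads and FACS-sorted into low and high (top ~1%) gates on expression and reagent-binding fluorescence. Labels for polyreactivity follow the gate of origin.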", "values": [
      {"sequence": "QVQLVESGGGLVQAGGSLRLSCAASGLTFESYAMGWYRQAPGKERELVAGIDWSGGSTYYADSVKGRFTISRDNAKNTVYLQMNSLKPEDTAGYYCKRYGNSNYFAPGPLYNYWGQGTQVTVSS", "polyreactivity (PSR sort gate)": "high polyreactivity"},
      {"sequence": "QVQLVESGGGLVQAGGSLRLSCAASGLTFFGYPMGWYRQAPGKEREFVADITWSGGSTYYADSVKGRFTISRDNAKNTVYLQMNSLKPEDTAVYYCAADYHKAEFNYWGQGTQVTVSS", "polyreactivity (PSR sort gate)": "low polyreactivity"},
      {"sequence": "QVQLVESGGGLVQAGGSLRLSCAASGLTFFRNAMGWYRQAPGKEREFVAGITSTDGSTYYADSVKGRFTISRDNAKNTVYLQMNSLKPEDTAVYYCAAAYRVRGRTYDSWGQGTQVTVSS", "polyreactivity (PSR sort gate)": "high polyreactivity"},
      {"sequence": "QVQLVESGGGLVQAGGSLRLSCAASGLTFGDYAMGWYRQAPGKERELVAAITKSGGRTYYADSVKGRFTISRDNAKNTVYLQMNSLKPEDTEVYYCATRKGRRYGYNYWGQGTQVTVSS", "polyreactivity (PSR sort gate)": "high polyreactivity"},
      {"sequence": "QVQLVESGGGLVQAGGSLRLSCAASGLTFGDYTMGWYRQAPGKERELVAAITWSGASTYYADSVKGRFTISRDNAKNTVYLQMHSLKPEDTAVYYCAAERTPSYRAYDYWGQGTKVTVSS", "polyreactivity (PSR sort gate)": "low polyreactivity"},
      {"sequence": "QVQLVESGGGLVQAGGSLRLSCAASGLTFGDYVMGWYRPAPGKERELVATITSDGGTTYADSVKGRFTISRDNAKNTVYLQMNSLKPEDTAVYYCNADAVVDNYVGFSAAGYDYWGQGTQVTVSS", "polyreactivity (PSR sort gate)": "low polyreactivity"},
      {"sequence": "QVQLVESGGGLVQAGGSLRLSCAASGLTFGKYAMGWYRQAPGKERELVAAISRRGGSTYYADSVKGRFTISRDNANNTVYLQMNSLKPEDTAVYFCNTDTKHTGLDYWGQGTQVTVSS", "polyreactivity (PSR sort gate)": "high polyreactivity"},
      {"sequence": "QVQLVESGGGLVQAGGSLRLSCAASGLTFGNYAMGSYRQAPGKERELVAAITSGGSTYYADSVKGRFTISRDNAKNTVYLQMNSLKPEDTAVYYCAKRQSQHYRSYLMDYWGQGTQVTVSS", "polyreactivity (PSR sort gate)": "low polyreactivity"},
      {"sequence": "QVQLVESGGGLVQAGGSLRLSCAASGLTFGRYAMGWYRQAPGKERELVAAISSGGSTYYADSVKGRFTISRDNAKNTVYLQMNSLKPEDTAVYYCAADYVGWYFVSGRDYWGQGTQVTVSS", "polyreactivity (PSR sort gate)": "low polyreactivity"},
      {"sequence": "QVQLVESGGGLVQAGGSLRLSCAASGLTFGRYAMGWYRQAPGKERELVAAITWIGDGTYYGDSVKGRFTISRDNAKKTVYLQMNSLTPEDTAVYYCAAVYYTYLYGRYNYWGQGTQVTVSS", "polyreactivity (PSR sort gate)": "low polyreactivity"},
      {"sequence": "QVQLVESGGGLVQAGGSLRLSCAASGLTFGRYAMGWYRQAPGKERELVAVINGSGGNTYYADSVKGRFTISRDNAKNTVYLQMNSLKPEDTAVYYCAARRTVQYTLYYYPDYNYWGQGTQVTVSS", "polyreactivity (PSR sort gate)": "low polyreactivity"},
      {"sequence": "QVQLVESGGGLVQAGGSLRLSCAASGLTFGSNGMGWYRQAPGKERELVAAISRGGSTSYADSVKGRFTISRDNAKNTVYLQMNSLKPEDTAVYYCAARSYRYSYRYRAFDYWGQGTQVTVSS", "polyreactivity (PSR sort gate)": "high polyreactivity"},
      {"sequence": "QVQLVESGGGLVQAGGSLRLSCAASGLTFGTNAMGWSRQAPGKERELVAAISTSSGSTYYSDSVKGRFTISRDNAKNTDYLQMNSLKPEDTAVYYSAAVTVTNLSYYRYYYWGQGTQVTVSS", "polyreactivity (PSR sort gate)": "low polyreactivity"},
      {"sequence": "QVQLVESGGGLVQAGGSLRLSCAASGLTFGTYAMGWYRPAPGKERELVAAIRSGGSTNYADSVKGRFTISRDNAKNTVYLQMNSLKPEDTAVYYCAKRYYWDRYYYWGQGTQVTVSS", "polyreactivity (PSR sort gate)": "high polyreactivity"},
      {"sequence": "QVQLVESGGGLVQAGGSLRLSCAASGLTFGVNAMGWYRQAPGKERELVAVITSGGNTYYADSVKGRFTISRDNAKNTVYLQMNSLKPEDTAVYYCAAYGRASWERDYWGQGTQVTVSS", "polyreactivity (PSR sort gate)": "low polyreactivity"},
      {"sequence": "QVQLVESGGGLVQAGGSLRLSCAASGLTFHAYAMGWYRQPPGKEREFVAAITRSGSSTSYADSVKGRFTISRDNAKNTVYLQMNSLKPEDTAVYYCAAQGSRKYRNDYWGQGTQVTVSS", "polyreactivity (PSR sort gate)": "high polyreactivity"},
      {"sequence": "QVQLVESGGGLVQAGGSLRLSCAASGLTFHSNDMGRYRQAPWKETEFVAAITSGGNTYYADSVKGRFTISRDNAKNTVYLPMNSLKPEDTAVYYCNADYQDEEDDYWGQGTQVTVSS", "polyreactivity (PSR sort gate)": "low polyreactivity"},
      {"sequence": "QVQLVESGGGLVQAGGSLRLSCAASGLTFIVYAMGWYRPAPGKERELVADITWSGGSTYYADSLKGRFTISRDNAKNTVYLQMNSLKPEATAVYYCNRQSAKIMDYWGQGTQVTVSS", "polyreactivity (PSR sort gate)": "low polyreactivity"},
      {"sequence": "QVQLVESGGGLVQAGGSLRLSCAASGLTFIYNAMGWYRQAPGKERELVAAISGNGGDTYYADSVKGRFTISRDNAKNTVYIQMNSLKPEDTAVYYCAADYAYTPITWDEYWGQGTQVTVSS", "polyreactivity (PSR sort gate)": "low polyreactivity"},
      {"sequence": "QVQLVESGGGLVQAGGSLRLSCAASGLTFKENVMGWYRQAPGKERELVAAISTGASTYYADSVKGRCTISRDNAKNTVYLQMNSLKPEDTAVYYGAKRVTRWYGYWGQGTQVTVSS", "polyreactivity (PSR sort gate)": "high polyreactivity"},
      {"sequence": "QVQLVESGGGLVQAGGSLRLSCAASGLTFKINAMGWYRQAPGKERELVAAIRSSGGRTYADSVKGRFTISRDNAKNTVYLQMNSLKPEDTAVYYCNKSPGYRSGRAVLYDYWGQGTQVTVSS", "polyreactivity (PSR sort gate)": "low polyreactivity"},
      {"sequence": "QVQLVESGGGLVQAGGSLRLSCAASGLTFKLYVMGWYRQAPGKERELVAAISGGGSTYYADSVKGRFTISRDNAKNTVYLQMNSLKPEDTAVYYCAAVRYFEYEYWGQGTQVTVSS", "polyreactivity (PSR sort gate)": "low polyreactivity"},
      {"sequence": "QVQLVESGGGLVQAGGSLRLSCAASGLTFKRYAMGWYRQAPGKERELVAGINYSSGSTYYADSVKARFTISRDNAKNTVYLQMNSLKPEDTAVYYCAADGGISAGANSGYDYWGQGTQVTVSS", "polyreactivity (PSR sort gate)": "high polyreactivity"},
      {"sequence": "QVQLVESGGGLVQAGGSLRLSCAASGLTFKRYAMGWYRQAPGKERELVASITGNGGSTYYADSVKGRFTISRDNAKNTVYLQMNSLIPEDTAVYYCNSRRYVRTSQQPLYDYWGQVTQVTVSS", "polyreactivity (PSR sort gate)": "high polyreactivity"},
      {"sequence": "QVQLVESGGGLVQAGGSLRLSCAASGLTFKSYAMGWYRQAPGKERELVAAISWRGGRTYYADSVKGRFTISRDNAKNTVYLQMNSLKPEDTAVYYCNARSQQWWLSRYNYWGQGTQVTVSS", "polyreactivity (PSR sort gate)": "high polyreactivity"},
      {"sequence": "QVQLVESGGGLVQAGGSLRLSCAASGLTFKYYAMGWYRQAPGKERELVAAITYSVGTTYYADSVKGRFTISRDNAKNTVYLQMNSLKPEDTAVYYCAADFAPVGLPSPYAVSEGEDDYWGQGTQVTVSS", "polyreactivity (PSR sort gate)": "low polyreactivity"},
      {"sequence": "QVQLVESGGGLVQAGGSLRLSCAASGLTFLFYAMGWYRHATGKERELVASIRWSDGRTYYADSVKGRFTISRDNAKNTVYLQMNSLKPEDTAVYYCAVVPAYVYLNREYYWGQGTQVTVSS", "polyreactivity (PSR sort gate)": "high polyreactivity"},
      {"sequence": "QVQLVESGGGLVQAGGSLRLSCAASGLTFLNNAMGWYRQAHGKERELVAAISDGGSTNYADSVKGRFTISRDNAKNTVYLQMNSLKPEDTAVYYCGADYTSASYGSWGQGTQVTVSS", "polyreactivity (PSR sort gate)": "low polyreactivity"},
      {"sequence": "QVQLVESGGGLVQAGGSLRLSCAASGLTFLRYAMGWYRQAPGKERELVATISASDGDTYYADSVKGRFTISGDNAKNTVYLQMNSLKPEDTAVYYCAADDIYKYYQYYAFPYYRYDDWGQGTEVTVSS", "polyreactivity (PSR sort gate)": "low polyreactivity"},
      {"sequence": "QVQLVESGGGLVQAGGSLRLSCAASGLTFLVNAMGWYRQAPGKEREFVSVITTDGGGTYYADSVKGRFTISRDNAKNTVYLQMNSLKPEDTAVYYCAAESKYRTAATSYRLDYDYWGQGTQVTVSS", "polyreactivity (PSR sort gate)": "low polyreactivity"},
      {"sequence": "QVQLVESGGGLVQAGGSLRLSCAASGLTFLVYAMGWYRQAPGKERELVAAITSIGDSTFYADSVKGRFTISRDNAKNTVYLQMNSLKPEDTAVYYCNADGPAGDNKFTLLDYDYWGQGTQVTVSS", "polyreactivity (PSR sort gate)": "low polyreactivity"},
      {"sequence": "QVQLVESGGGLVQAGGSLRLSCAASGLTFLWYAMGWYRQAPGKERELVAAITSGGRTKYADSVKGRFTISRDNAKNTVYLQMNSLKPEDTAVYYCAAYTQWWVYDYWGQGTQVTVSS", "polyreactivity (PSR sort gate)": "high polyreactivity"},
      {"sequence": "QVQLVESGGGLVQAGGSLRLSCAASGLTFNFNAMGWYRQAPGKERELVAAISYRAGSTYYADSVKGRFTISRDNAKNSVYLQMNSLKPEDTAVYYCAADGYYYLKSGTYVSDYWGQGTQVTVSS", "polyreactivity (PSR sort gate)": "low polyreactivity"},
      {"sequence": "QVQLVESGGGLVQAGGSLRLSCAASGLTFNKNAMGWYRQAPGKESEFVAAITRRGGSTYYADSVKGRFTISRDNAKNTVFLQMNSLKPEDTAVYYCAVYPASVNPYHYDYWGQGTQVTVSS", "polyreactivity (PSR sort gate)": "high polyreactivity"},
      {"sequence": "QVQLVESGGGLVQAGGSLRLSCAASGLTFNVYAMGWYRPAPGKERELVASITKRGGSTYYADSVKGRFTISRDNAKNTVYLQMNSLKPEDTAVYYCAADGLTGSKYRATGYYWGQGTQVTVSS", "polyreactivity (PSR sort gate)": "high polyreactivity"},
      {"sequence": "QVQLVESGGGLVQAGGSLRLSCAASGLTFPFYVMGWYRQAPGKERELVAAISASGASTYYADSVKGRFTISRDNAKNTVYLQMNSLKPEDTAVYYCAALGYGFSYRYDYWGQGTQVTVSS", "polyreactivity (PSR sort gate)": "high polyreactivity"},
      {"sequence": "QVQLVESGGGLVQAGGSLRLSCAASGLTFPGYAMGWYRQAPVKERELVAAISYSSGSTYYADSVKGRFTISRDNAKNTVYLQMNILKQEDTEVYYCNRVYRFRGITELDYWGQGTQVTVSS", "polyreactivity (PSR sort gate)": "high polyreactivity"},
      {"sequence": "QVQLVESGGGLVQAGGSLRLSCAASGLTFPQYAMGWYIQAPGKERELVAAISKTGGSTYYADSVKGRFTISRDNAKNTVYLLMNSLKPEDTAVYYCAAGSSVTPYRYYYWGQGTQVTVSS", "polyreactivity (PSR sort gate)": "high polyreactivity"},
      {"sequence": "QVQLVESGGGLVQAGGSLRLSCAASGLTFPVYAMGWYRQAPGKERELVAAISKSGGNTYYADSVKGRFTISRDNAKNTVYLQMNSLKPEDTAVYYCAAGYLSGNYARYGYWGQGTQVTVSS", "polyreactivity (PSR sort gate)": "high polyreactivity"},
      {"sequence": "QVQLVESGGGLVQAGGSLRLSCAASGLTFPYYAMGWYRQAPGKERELVATISWSSISTYYADSVKGRFTISRDNAKNTVYLQMNSLKPEDTAVYYCNARYSLRRGYDYWGQGTQVTVSS", "polyreactivity (PSR sort gate)": "low polyreactivity"},
      {"sequence": "QVQLVESGGGLVQAGGSLRLSCAASGLTFPYYAMGWYRQAPGTERELVAVITTSTGTTYYADSVKGRFTMSRDNAKNTVYLQMNSLKPEDTAVYYCATDTGAYWFSLYDYWGQGTQVTVSS", "polyreactivity (PSR sort gate)": "low polyreactivity"}
    ]}
  ]
}
